Results on two molecules are retold here after US5591427A, “Human Interleukin-3(Il-3) variants and their use to promote or antagonize IL-3-mediated processes” (Medvet Science Pty. Ltd., priority 1979, dated 1997).

Experiment [1] has as its target T1, IL-3R α chain and β chain (Homo sapiens, UniProt P26951+P32927).
T1 construct: amplify the complete coding region of the IL-3R alpha chain; also to amplify the coding region of the IL-3R α chain; expressed in transfected cells; host or cells: COS cells (pCDM8 vector, electroporation)
T1 sequence (P26951 19-378): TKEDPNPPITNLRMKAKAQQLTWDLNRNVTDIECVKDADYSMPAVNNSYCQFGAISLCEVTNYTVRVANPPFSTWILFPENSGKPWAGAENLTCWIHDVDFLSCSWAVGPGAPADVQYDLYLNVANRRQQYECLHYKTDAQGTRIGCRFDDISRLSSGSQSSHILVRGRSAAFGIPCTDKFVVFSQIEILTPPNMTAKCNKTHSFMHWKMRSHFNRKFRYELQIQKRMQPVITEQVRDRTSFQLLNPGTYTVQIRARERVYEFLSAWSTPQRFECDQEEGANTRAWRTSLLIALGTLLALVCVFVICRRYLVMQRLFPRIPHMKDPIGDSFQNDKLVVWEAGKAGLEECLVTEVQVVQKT
T1 sequence (P32927 17-897): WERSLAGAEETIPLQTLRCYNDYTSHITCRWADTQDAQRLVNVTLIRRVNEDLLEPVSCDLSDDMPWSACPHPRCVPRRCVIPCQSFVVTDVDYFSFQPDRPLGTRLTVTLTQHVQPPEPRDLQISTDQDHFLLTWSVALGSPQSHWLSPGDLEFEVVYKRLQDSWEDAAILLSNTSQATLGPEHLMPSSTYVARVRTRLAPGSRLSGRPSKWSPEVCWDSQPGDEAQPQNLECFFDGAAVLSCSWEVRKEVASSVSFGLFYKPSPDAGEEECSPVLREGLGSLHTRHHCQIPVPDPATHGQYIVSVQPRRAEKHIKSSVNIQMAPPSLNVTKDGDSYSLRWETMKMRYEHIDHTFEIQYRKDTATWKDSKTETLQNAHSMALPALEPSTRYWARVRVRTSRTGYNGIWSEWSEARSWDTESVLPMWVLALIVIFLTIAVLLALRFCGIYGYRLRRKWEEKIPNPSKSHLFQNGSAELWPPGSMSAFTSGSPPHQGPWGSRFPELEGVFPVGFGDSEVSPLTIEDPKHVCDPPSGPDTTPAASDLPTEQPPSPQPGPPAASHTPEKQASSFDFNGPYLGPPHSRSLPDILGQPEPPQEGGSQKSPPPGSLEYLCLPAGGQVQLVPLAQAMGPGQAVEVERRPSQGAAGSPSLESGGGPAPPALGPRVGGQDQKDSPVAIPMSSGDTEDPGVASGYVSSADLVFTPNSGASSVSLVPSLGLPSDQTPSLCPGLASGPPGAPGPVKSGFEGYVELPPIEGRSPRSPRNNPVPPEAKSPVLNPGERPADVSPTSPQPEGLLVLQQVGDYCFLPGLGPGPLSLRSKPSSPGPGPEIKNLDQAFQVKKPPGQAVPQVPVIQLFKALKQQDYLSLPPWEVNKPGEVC
The experiment in a line: Competition for 125I-IL-3 binding to reconstituted IL-3 high affinity receptor (α and β chains) in COS cells. The conditions noted are these: FIG. 7. The text has this:
PolyA+ RNA was isolated from the human cord blood cell line KMT2. Oligo dT primed double stranded cDNA was synthesised and used as template for PCR amplification. The PCR primers were designed to amplify the complete coding region of the IL-3R alpha chain and also to amplify the coding region of the […]. The PCR products were cloned into the vector pGEM-2 for sequence verification, and then into the eukaryotic expression vector, pCDM8. The […]-containing plasmid was transfected into COS cells by electroporation, either on its own or in conjunction with the […], and after two days the cells were used for binding studies.

The next experiment deals with monocytes. The experiment in a line: Stimulation of human monocyte adherence (51Cr adhesion assay). It counts as cell-based. How it is done: (a) Monocyte purification. Monocytes were purified from the peripheral blood of normal donors, obtained from the Adelaide Red Cross Transfusion Service, as previously described (Elliott et. al., 1990, J. Immunol., 145, 167-171). In brief, mononuclear cells were prepared by centrifugation of whole blood on lymphoprep cushions (Nyegaard, Oslo, Norway) and washed twice in HBSS, 0.02% EDTA, 0.1% heat inactivated FCS (Flow Laboratories, North Ryde, Australia) and monocytes were purified in a Beckman J-6M/E elutriator using the Sanderson chamber, a flow rate of 12 ml/min and a constant rotor speed of 2050 rpm. Cells remaining in the chamber after 30 min were collected, washed twice in HBSS, and used immediately. Using these methods, monocyte purity as assessed by morphology and nonspecific-esterase staining was always >90% and usually >95%. The major contaminating cell types were lymphocytes and granulocytes (principally basophils).
(b) Adhesion assay. Adhesion was measured by an isotopic method essentially as described (Elliott et. al., supra). In brief, purified monocytes (0.5 to 1×10^8) were resuspended in 1 ml RPMI 1640 with 0.1% FCS and antibiotics and incubated for 30 min at 37° C. with 500 μCi^51 Cr in the form of sodium chromate (Amersham International., Buckinghamshire, England). Cells were washed thrice in RPMI 1640 and resuspended in culture medium consisting of RPMI 1640, 10% FCS, antibiotics, and 0.2% sodium bicarbonate. For measurement of adhesion, 1 to 2.5×10^5 monocytes were aliquotted per well in 96-well microtitre plates (Nunc, Karnstrup, Denmark) together with stimuli or control medium to a total volume of […], and incubated for the indicated periods. […] At harvest, samples of supernatant were taken to assess spontaneous ^51 Cr release (usually <10% of cell-associated radioactivity), wells were washed three times with RPMI 1640 at 37° C., and residual adherent cells lysed in 10 mM Tris-hydrochloride, and 1% Nonident p40 detergent (Sigma). Lysates were transferred to tubes and counted in a Packard auto-gamma 5650. Percent adherence was calculated according to the formula: [formula]

The test system of experiment [2] is bone marrow progenitor cells. Description: Colony assay: clonal proliferation and differentiation of bone marrow progenitor cells in semi-solid agar. It counts as cell-based. The conditions noted are these: concentration of IL-3 mutant giving 50% of biological activity compared to that of wild type IL-3; mean ± SD. How it is done:
(a) Colony assay: this assay measured the clonal proliferation and differentiation of bone marrow progenitor cells in semi-solid agar and was carried out as described (Lopez et. al., 1985, Blood 72, 1797-1804). Briefly, low density, macrophage-depleted bone marrow cells were cultured at a concentration of 0.5 to 1×10^5 /mL in Iscove's modified Dulbecco's medium (IMDM, GIBCI, Grant Island, N.Y.), containing 0.33% agar (Difco, Detroit), 25% FCS (Commonwealth Serum Laboratories, Parkville, Victoria, Australia), and 20 μmol/LK2-mercaptoethanol. Different dilutions of IL-3- containing COS cell supernatants were added to each plate. Plates were prepared in triplicate and scored after incubation at 37° C. in 5% CO2 in a humid atmosphere for 14 days. Clones containing 40 cells were scored as colonies.

The subject of experiment [3] is chronic myeloid leukaemic (CML) cells. The experiment in a line: Proliferation of chronic myeloid leukaemic (CML) cells, [3H] thymidine incorporation. It is filed as cell-based, human. How it is done: (b ) Proliferation of chronic myeloid leukaemic (CML) cells: Primarily CML cells from one patient were selected for their ability to incorporate [^3 H] thymidine in response to IL-3 as described (Lopez el. al., supra ). Briefly, CML cells were placed at 2×10^5 cells/mL fresh medium containing different concentrations of IL-3. Cells were incubated for 24 hours in a flat bottom 96-well NUNCLON plates (2×10^4 cells/well) before being pulsed with [^3 H] thymidine (0.5 μCi/well) for four more hours at 37° C. The cells were then harvested onto glass filters with a Titertek automated cell harvester and counted into a Beckman liquid scintillation counter. Data are expressed in cpm, and each point is the mean of six replicates.
On the technique in general: Dividing cells build labelled thymidine or BrdU into new DNA.

Where [4] appears, read: concentration of IL-3 mutant giving 50% of biological activity compared to that of wild type IL-3.

B1: M47: human IL-3 mutant, glutamic acid at position 22 replaced by arginine (protein, UniProt P08700 20-152, looked up, variant E22R)
Interleukin-3: APMTQTTPLKTSWVNCSNMIDRIITHLKQPPLPLLDFNNLNGEDQDILMENNLRRPNLEAFNRAVKSLQNASAIESILKNLLPCLPLATAAPTRHPIHIKDGDWNEFRRKLTFYLKTLENAQAQQTTLSLAIF
Regarding B1, in experiment [1], the “binding to cotransfected α and β chains” value is on record as “less binding”.

B2: M6: human IL-3 mutant, amino acid 101 (Asp) replaced by Ala (protein, UniProt P08700 20-152, looked up, variant D101A)
Interleukin-3: APMTQTTPLKTSWVNCSNMIDEIITHLKQPPLPLLDFNNLNGEDQDILMENNLRRPNLEAFNRAVKSLQNASAIESILKNLLPCLPLATAAPTRHPIHIKAGDWNEFRRKLTFYLKTLENAQAQQTTLSLAIF
As to B2, the “stimulation of monocyte adherence” value with monocytes (FIG. 3) was “more potent than the wild type IL-3”. Further, the “Relative biological activity, MONOCYTE” value with monocytes (setting [4]) is 153 ± 48. For the same molecule, the “Relative biological activity, PROLIFERATION COLONIES” value in experiment [2] amounted to 104 ± 35. For the same molecule, the “stimulation of CML cell proliferation” value in experiment [3] (FIG. 2, FIG. 8) is reported as “more potent than the wild type IL-3”. Besides, the “Relative biological activity, PROLIFERATION CML” value in experiment [3] (setting [4]) turned out to be 205.
